Data from the supplement of paper PMC12764529.
± gives the half width of the 95% confidence interval.

Legend:
[1] = folding stability dG unfold from trypsin proteolysis; higher = more stable
Outline: (§1)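 Only designs with AlphaFold2 dimer inter-PAE above 15 were retained; each was a mini-protein under 80 residues with no cysteine, in a PA-tagged cDNA display construct. After digestion with trypsin and chymotrypsin and sequencing, K50 was inferred by Bayesian fitting of counts, and unfolding free energy was derived per protease or combined against a sequence-predicted unfolded-state K50 and a shared folded-state K50.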

[2] = folding stability dG unfold from chymotrypsin proteolysis; higher = more stable
Outline: as §1

[3] = folding stability dG unfold (combined trypsin and chymotrypsin); higher = more stable
Outline: as §1

| Sequence | folding stability dG unfold [1] | folding stability dG unfold [2] | folding stability dG unfold [3] |
| --- | --- | --- | --- |
| SAGGEVKVVKAEVTTLPDGRKLVRLLLEVGGKFYPVLIDVHPDGVRITFPDGKTATIKLEDLKNLTWSAGGS [r16_593_TrMRF] | 2.64 ± 0.094 kcal/mol | 1.73 ± 0.14 kcal/mol | 2.15 ± 0.12 kcal/mol |
| SAGGEVLIDTGPSPEEALYRAYEKGGEVPVIVLEPGSRVLHIFNVRFNPIPKKVEILDEYEIPILPELSAGG [r13_309_TrMRF] | 1.18 ± 0.025 kcal/mol | 1.46 ± 0.087 kcal/mol | 1.38 ± 0.11 kcal/mol |
| SAGGFEFEFTNPDGKKIKVEIERHPEEGYIMLKIQYGGKPVETFPPGDEFEIPPDGIDAVIMFRLPPESAGG [r13_958_TrROS] | 2.88 ± 0.15 kcal/mol | 3.22 ± 0.12 kcal/mol | 2.91 ± 0.22 kcal/mol |
| SAGGFKEIKKKLGVKKEDKVILDLEVNFGKKPKFFKVEFEVDKLEEIVKELGIPKENLKIVKAVVIKESAGG [r13_681_TrMRF] | -0.523 ± 0.31 kcal/mol | 1.16 ± 0.082 kcal/mol | 0.706 ± 0.13 kcal/mol |
| SAGGFLEAIKNGKPVIFHVLVKHPGSGEVEEYPILVHPDKPIDLEKLIKELFPEDFEAEIFVSDFGFSAGGS [r8_127_TrMRF] | 1.3 ± 0.13 kcal/mol | 2.11 ± 0.058 kcal/mol | 1.89 ± 0.089 kcal/mol |
| SAGGFLENLPDEVVEAALAAVLPDGSRVFVALRKGPDRPRVLIITFDANGVPRDIRELDPEEALKALEASAG [r5_73_TrMRF] | 2.48 ± 0.042 kcal/mol | 2.75 ± 0.028 kcal/mol | 2.68 ± 0.034 kcal/mol |
| SAGGFRIERDGDYLRIEIRVNDPPGQPVEEAKNIMKQLFGFKDIKVDEIEPNPNGQAEIEIEIPFPKSAGGS [r16_234_TrROS] | 0.658 ± 0.13 kcal/mol | -0.3 ± 0.29 kcal/mol | 0.393 ± 0.12 kcal/mol |
| SAGGFTIEELAEKFPNVEVYVQRFGNKYLIQFEFEDKDRKYQVVIKYDGPGKIDIKVMPPNQDAEEALSAGG [r13_859_TrROS] | 2.1 ± 0.069 kcal/mol | 3.094 ± 0.019 kcal/mol | 2.8 ± 0.072 kcal/mol |
| SAGGFVTFKAPPVLIEAFKKAGLTPSEAKTLLLPVKFGDKEVVVEVTFYPETGEVKVKVLSFGTEFEAESAG [r5_545_TrMRF] | 2.22 ± 0.069 kcal/mol | 3.38 ± 0.04 kcal/mol | 3.07 ± 0.13 kcal/mol |
| SAGGGAPNKPVGKETFTVKIGDKWVKVEVTHYATSGTAEVKVTGPNGGPLGTFTVKIDPEKGGVYFGSAGGS [r16_798_TrMRF] | 0.728 ± 0.056 kcal/mol | 2.44 ± 0.074 kcal/mol | 2.11 ± 0.14 kcal/mol |
| SAGGGFDIITITFGGIPITLTLEGEEEVKKFIEELPKLGIKTEILEKEKKIGPDGKPYVEVKVKAIPSAGGS [r8_336_JUSTAS] | 0.299 ± 0.13 kcal/mol | 1.43 ± 0.14 kcal/mol | 1.19 ± 0.16 kcal/mol |
| SAGGGHMMPNITVDVEEEVFTLPDGSILTRTTVTVTLPNGKKTTVETEYFYDTKTGTVSSKVVKVEASAGGS [r16_166_JUSTAS] | 2.72 ± 0.11 kcal/mol | 3.45 ± 0.082 kcal/mol | 3.17 ± 0.1 kcal/mol |
| SAGGGISIVSGDPEITPEKAEAIAAELAAILEEKGFTPKDAELARLPGGRILVTITVDDGKPIVFSLSAGGS [r8_485_TrMRF] | 1.77 ± 0.041 kcal/mol | 1.15 ± 0.019 kcal/mol | 1.49 ± 0.028 kcal/mol |
| SAGGGKKTKYVLLTFNPKEVKAEDLEKEILKKGAEIYIGDKPIDPGKGVKEVMKANPNTTFLVKIYDSAGGS [r8_38_TrMRF] | 1.11 ± 0.11 kcal/mol | 1.61 ± 0.42 kcal/mol | 1.12 ± 0.32 kcal/mol |
| SAGGGKLFVTEDAVLLELLYPETGEPYLAVFNPPTGLVTVYFPNRLKALFKIDPDGNLTLVKIEPANSAGGS [r16_127_TrMRF] | 2.06 ± 0.093 kcal/mol | 2.979 ± 0.028 kcal/mol | 2.69 ± 0.078 kcal/mol |
| SAGGGKTVEVTIEVPGENAVVYIKVYDKDKPISVFPAEFIPPTGTATFTIDVPEDAEITAEVALPEEASAGG [r13_977_TrMRF] | 0.106 ± 0.033 kcal/mol | 0.904 ± 0.14 kcal/mol | 0.687 ± 0.091 kcal/mol |
| SAGGGLALRLEVETERVEREVFDADGRLVAREEVEVRRVRLELVPLPPAPPPPTVTVRPGDPRDPRLRSAGG [r13_508_TrROS_Hall] | 1.53 ± 0.13 kcal/mol | 3.18 ± 0.04 kcal/mol | 2.69 ± 0.13 kcal/mol |
| SAGGGLGADALAKKFKELFPNAKVEKLPNGKVLFYIPETGKLIEIYDLDDEQIIKIIDPNTPKVYIISAGGS [r16_478_TrMRF] | 1.68 ± 0.077 kcal/mol | 0.986 ± 0.13 kcal/mol | 1.44 ± 0.11 kcal/mol |
| SAGGGMEIRLTIYRVDPETGVETSVEKEVTLEEAKEIVKEIPEEGEYTVRVTRPDRPEDVSPEELKLLSAGG [r13_254_JUSTAS] | 0.246 ± 0.11 kcal/mol | -0.0215 ± 0.16 kcal/mol | 0.192 ± 0.073 kcal/mol |
| SAGGGMESRTLTLPKEEIEKVKEEIKKASNLDIKVTTKKLPNGEYELTITFSNPEDVEKFEKKLGIESAGGS [r16_172_JUSTAS] | 1.99 ± 0.16 kcal/mol | 3.05 ± 0.059 kcal/mol | 2.71 ± 0.15 kcal/mol |
| SAGGGMLEVTREPSPDGVTRYVVTVPADRTVTVTRPDGTTTTTAAPDADAVITYTVPPGTPVAVSLTPSAGG [r13_82_JUSTAS] | 0.555 ± 0.03 kcal/mol | -0.524 ± 0.28 kcal/mol | 0.207 ± 0.092 kcal/mol |

| Sequence | folding stability dG unfold [1] | folding stability dG unfold [2] | folding stability dG unfold [3] |
| --- | --- | --- | --- |
| SAGGGMMVLKVSQPVLLLSTVTLPNGFPKFLPVSPLSLETTVTFTGSDQDAEELAAELKAQGATVTEESAGG [r13_452_JUSTAS] | 0.585 ± 0.025 kcal/mol | 0.719 ± 0.12 kcal/mol | 0.715 ± 0.078 kcal/mol |
| SAGGGMMWTVTFYPKETDTPITFPVPKEYITEIDEENNKIVIKKPPGETIEITDFNKIKSIEITPLPSAGGS [r8_111_JUSTAS] | 0.541 ± 0.04 kcal/mol | 0.528 ± 0.18 kcal/mol | 0.586 ± 0.15 kcal/mol |
| SAGGGMQAVSPVKTETKTSPDGTTTTTTTTRYPDGTVVVPVTETSPTGGAKKVATTTVSLGPPSPALASAGG [r13_494_JUSTAS] | -0.315 ± 0.085 kcal/mol | 1.07 ± 0.033 kcal/mol | 0.599 ± 0.093 kcal/mol |
| SAGGGMSTTTETTIRIYVKDPQGNPVFVAELTVTVTTSPSGEVTIHLPPEFLKALPPNYTIAKIEVTSAGGS [r16_295_JUSTAS] | 3.94 ± 0.21 kcal/mol | 4.13 ± 0.086 kcal/mol | 4.06 ± 0.083 kcal/mol |
| SAGGGMSTYTITINIVIDPKEKKVPKPPLKDPFKLPPLKTIPITITAETSDPAVAAALEKAVKEALGLSAGG [r13_35_JUSTAS] | 1.73 ± 0.038 kcal/mol | 2.19 ± 0.054 kcal/mol | 2 ± 0.069 kcal/mol |
| SAGGGMTFNFTAPDGTPYEDVTTTPLPDGSTLVTVTQEDPKNPGVVTVTLIRLPSGADALEVTSGPVVSAGG [r13_370_JUSTAS] | 0.972 ± 0.07 kcal/mol | 0.803 ± 0.087 kcal/mol | 0.944 ± 0.095 kcal/mol |
| SAGGGMTPTITVTVHYPGETVTITLSSIEEALEYLKKQGLPINPTHSDPNTLVIEFPDGRTVTITLSSAGGS [r8_365_JUSTAS] | 3.67 ± 0.15 kcal/mol | 4.15 ± 0.16 kcal/mol | 3.98 ± 0.15 kcal/mol |
| SAGGGMVRPSIKITKHPDTYVATVTVTHPHRPVTVTLPFSSEPEAISEAEKIVEELIATPVPSPAGASAGGS [r16_24_JUSTAS] | 0.775 ± 0.037 kcal/mol | 0.831 ± 0.072 kcal/mol | 0.841 ± 0.11 kcal/mol |
| SAGGGNKPKIKVLLFFPDRVVELEFESPEEFIRALEEAGFPVIPVSEDSKYLVIEFPDGLRALADFSSAGGS [r8_365_TrMRF] | 2.44 ± 0.049 kcal/mol | 2.476 ± 0.014 kcal/mol | 2.48 ± 0.046 kcal/mol |
| SAGGGNVTKTSTTTLPNGTTLVTYTGTSPSSAGSKNLSLLSLPFDVTVTKVEFDPNTGKVTIETVIPPSAGG [r13_413_JUSTAS] | 0.516 ± 0.059 kcal/mol | 1.25 ± 0.14 kcal/mol | 0.978 ± 0.13 kcal/mol |
| SAGGGPAAEVARLLREAGYDVEVEVEVFSREENPPLLPGEPLVVRVRVYATPPTGPRRPLGEFVVPVGSAGG [r13_874_TrMRF] | 1.47 ± 0.035 kcal/mol | 2.49 ± 0.029 kcal/mol | 2.17 ± 0.06 kcal/mol |
| SAGGGPAKEVPILALIKARNPETGEEYELPIVITANSKEDVEAAKGLVDTLAEALRELGFTEVEVEIGSAGG [r13_360_TrMRF] | 2.97 ± 0.069 kcal/mol | 2.72 ± 0.042 kcal/mol | 2.83 ± 0.058 kcal/mol |
| SAGGGPDEVSEVKVSSTTTDPATGKTYTVDTTTVTTPGTVTTNTTYTVHDPVTGAVTTETTTTTTPPGSAGG [r13_206_JUSTAS] | 0.583 ± 0.034 kcal/mol | 0.481 ± 0.075 kcal/mol | 0.59 ± 0.045 kcal/mol |
| SAGGGPDLVIDVEILEIRVEPEPGKTATIRVRALIYNPETDTWTLAEFEIRIPDDGSVEVRFRVEPLRSAGG [r13_917_TrMRF] | 3.08 ± 0.082 kcal/mol | 4.13 ± 0.05 kcal/mol | 3.76 ± 0.074 kcal/mol |
| SAGGGPLSPGSVPVEEEVTEVVEDPATGTVTTRSRVRYPDGVEVEVTTTTPAPGLPEVSTTEVTVRPASAGG [r13_894_JUSTAS] | 0.978 ± 0.044 kcal/mol | 0.948 ± 0.018 kcal/mol | 0.929 ± 0.11 kcal/mol |
| SAGGGPPAKPVYLTVTVTTEDPVETAKKVEEEVKKLFPDAEILKVEVKKNPETNLYTVTVYVKKLVKSAGGS [r8_120_TrMRF] | 2.67 ± 0.075 kcal/mol | 4.58 ± 0.079 kcal/mol | 4.3 ± 0.092 kcal/mol |
| SAGGGPPSSMVKKTYTVTGTDPDALAAAVRAAIAAAHPDVEITEVTVSRDPSSDRYTVTVDVLSSVASAGGS [r8_120_JUSTAS] | 2.22 ± 0.036 kcal/mol | 2.638 ± 0.017 kcal/mol | 2.51 ± 0.051 kcal/mol |
| SAGGGPSMTITVTVSSSELTSGSGPGPLTPEDVAKRLEAELPPGNVTVTVVEVDPATGEVTVRIEVESAGGS [r16_284_JUSTAS] | 1.17 ± 0.064 kcal/mol | 1.1 ± 0.034 kcal/mol | 1.17 ± 0.077 kcal/mol |
| SAGGGREIKVEFEIPHPNGNQMRITVTIYRSPGGIRIKIPVSYTDPEYRDYMREWAEYLARRIAKELSAGGS [r8_416_TrROS] | 3.05 ± 0.089 kcal/mol | 3.571 ± 0.022 kcal/mol | 3.46 ± 0.047 kcal/mol |
| SAGGGRPILFRPPDGSVEVVPVPADATLEEVKEVAEAAAAARGYTELSFDPATETVTIDLGGDRVEAASAGG [r13_572_JUSTAS] | -1.46 ± 0.47 kcal/mol | 0.824 ± 0.024 kcal/mol | 0.426 ± 0.049 kcal/mol |
| SAGGGSATLVGIFPEKGYLVVLTITTDGDDFSIGELKVTFEPLDDDSVKATFYTPSGQKHDAIGLPVASAGG [r13_515_TrMRF] | 1.54 ± 0.053 kcal/mol | 1.42 ± 0.1 kcal/mol | 1.46 ± 0.059 kcal/mol |
